Test results published in article PMC3498451.

Biological target: HIV-1 Gag-glutathione-S-transferase (GST) fusion protein, wild type (HIV-1)
Test: cross-linking + pull-down

B1: 2',3'-cyclic-nucleotide 3'-phosphodiesterase (CNP), human, wild type (natural protein)
chain: MNRGFSRKSHTFLPKIFFRKMSSSGAKDKPELQFPFLQDEDTVATLLECKTLFILRGLPGSGKSTLARVIVDKYRDGTKMVSADAYKITPGARGAFSEEYKRLDEDLAAYCRRRDIRILVLDDTNHERERLEQLFEMADQYQYQVVLVEPKTAWRLDCAQLKEKNQWQLSADDLKKLKPGLEKDFLPLYFGWFLTKKSSETLRKAGQVFLEELGNHKAFKKELRQFVPGDEPREKMDLVTYFGKRPPGVLHCTTKFCDYGKAPGAEEYAQQDVLKKSYSKAFTLTISALFVTPKTTGARVELSEQQLQLWPSDVDKLSPTDNLPRGSRAHITLGCAADVEAVQTGLDLLEILRQEKGGSRGEEVGELSRGKLYSLGNGRWMLTLAKNMEVRAIFTGYYGKGKPVPTQGSRKGGALQSCTII
stoichiometry N: 1 CNP:Gag-GST
